Laboratory results taken from patent publication US20260092097A1 (ALTOR BIOSCIENCE, published 2026).
Values belong to the binder of their own block, whether it stands above or below them.

Biological target: T1, IL-15 receptor (IL-15RβγC) on 32Dβ cells (human; mouse, UniProt P14784 27-551; P34902 23-369)
T1 sequence (looked up) 1: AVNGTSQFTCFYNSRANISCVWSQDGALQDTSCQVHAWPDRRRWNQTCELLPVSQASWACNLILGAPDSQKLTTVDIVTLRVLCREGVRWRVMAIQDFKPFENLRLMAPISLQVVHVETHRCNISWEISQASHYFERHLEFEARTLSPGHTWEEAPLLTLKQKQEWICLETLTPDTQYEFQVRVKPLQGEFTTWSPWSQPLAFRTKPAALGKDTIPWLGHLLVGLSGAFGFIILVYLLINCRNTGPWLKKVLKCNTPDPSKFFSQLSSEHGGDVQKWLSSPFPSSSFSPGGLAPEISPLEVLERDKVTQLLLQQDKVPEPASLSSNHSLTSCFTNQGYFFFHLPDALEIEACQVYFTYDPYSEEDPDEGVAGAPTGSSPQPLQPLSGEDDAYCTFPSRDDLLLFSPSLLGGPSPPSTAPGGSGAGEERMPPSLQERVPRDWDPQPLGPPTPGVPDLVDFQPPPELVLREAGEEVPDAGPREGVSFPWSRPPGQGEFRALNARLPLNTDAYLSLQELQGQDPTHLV
T1 sequence (looked up) 2: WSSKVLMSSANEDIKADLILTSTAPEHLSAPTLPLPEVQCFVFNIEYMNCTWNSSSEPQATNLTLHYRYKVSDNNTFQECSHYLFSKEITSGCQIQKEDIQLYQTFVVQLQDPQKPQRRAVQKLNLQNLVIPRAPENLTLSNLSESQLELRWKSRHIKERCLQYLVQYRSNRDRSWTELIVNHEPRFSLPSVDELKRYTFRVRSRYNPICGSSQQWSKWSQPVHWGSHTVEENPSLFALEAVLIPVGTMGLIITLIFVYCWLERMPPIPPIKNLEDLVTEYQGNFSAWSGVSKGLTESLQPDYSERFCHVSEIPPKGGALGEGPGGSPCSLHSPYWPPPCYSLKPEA
Test: cell-based or functional assay

IL-15 dependent 32Dβ cell proliferation, EC50: 15.8 pM
B1: in vitro assembled IL-15N72D:IL-15RαSu/Fc complex (IL-15N72D:IL-15RαSu/Fc IVA) (Fc fusion)
chain 1: PELLGG
chain 2: PEAAGG

IL-15 dependent 32Dβ cell proliferation, EC50: 15.6 pM
B2: IL-15N72D:IL-15RαSu/Fc complex (Alt-803) (Fc fusion)
chain 1: PELLGG
chain 2: PEAAGG
